Measured values from article PMC7478360.

Columns and labels:
[1] = target: T1, thrombin (human (plasma), UniProt P00734;P00734 328-363;364-622); experiment: graphene FET, Dirac voltage shift
[2] = target: T1, thrombin; experiment: graphene FET, real-time drain current
[3] = target: T1, thrombin; experiment: graphene FET, Dirac voltage shift; remark: listed apart in the source

| Binder | Kd [1] [nM] | Kd [2] [nM] | binding result [3] |
| --- | --- | --- | --- |
| CCATCTCCACTTGGTTGGTGTGGTTGG (structured_DNA, 5' NH2-(CH2)6, amide-coupled to PBASE on graphene) [anti-thrombin DNA aptamer] | 0.376 | 0.732 |  |
| ATCAGGGCTAAAGAGTGCAGAGTTACTTAG (ssDNA, 5' NH2-(CH2)6, amide-coupled to PBASE on graphene) [anti-lysozyme DNA aptamer] |  |  | no binding |
